What all share (assay type): physicochemical
Data set [1] in a line: Density measurements of β-casein solutions (density meter DMA 5000). The conditions noted are these: 20 mg/ml β-casein, pH 2.6, lactic acid solution. How it is done:
The specific gravity of the solvents and the protein solutions was measured by a density meter DMA 5000 from Anton-Paar at various temperatures. These measurements enabled an accuracy of six digits.
Density measurements of the β-casein solutions at pH 2.6 as a function of temperature are summarized in Table 1 Density measurements were performed using a density meter DMA 5000 from Anton-Paar, reaching an accuracy of six digits.

Data set [2] in a line: Small angle X-ray scattering (SAXS) of micelles. How it is done:
The small angle X-ray scattering equipment consisted of a SAXSess camera (Anton-Paar, Graz, Austria) connected to an X-ray generator (Philips, PW 1730/10) operating at 40 kV and 50 mA with a sealed-tube Cu anode. A Gael mirror was used to convert the divergent polychromatic X-ray beam into a focused line-shaped beam of Cu Kα radiation (λ=0.154 nm). The 2D scattering pattern was recorded by a PI-SCX fused fiber optic taper CCD camera from Princeton Instruments, which is a division of Roper Scientific, Inc. (Trenton, N.J., USA). The used CCD detector features a 2084×2084 array with 24×24 μm pixel size (chip size: 50×50 mm). The CCD was operated at −30° C. with 10° C. water-assisted cooling to reduce the thermally generated charge. Cosmic ray correction and background subtraction were performed on the 2D image before further data processing. The 2D image was integrated into the one-dimensional scattering function within a band of 10 mm. The measurement time was 30 min for each scattering curve (6 images of 5 minutes were taken to assist the cosmic ray correction).
The molecular weight of the scattering aggregates were calculated according to Eq. 1:
[formula] where M is the molecular weight, dΣ(0)/dΩ (cm^−1) the forward scattering intensity at q=0, c (g/cm^3) the β-casein concentration, NA the Avogadro number, and ΔρM (cm/g) the scattering length difference per mass, given by: ΔρM=Δρ ν (2)
The scattering length difference Δρ (cm^−2) was calculated using the known chemical composition of the protein and the solvent, and ν (cm^3/g), the specific volume of the protein in the solution that was calculated via density measurement of the solvent and the solution. The micelle aggregation number was then calculated by dividing the molecular weight of the micelles determined with Eq. 1, by the molecular weight of a single protein molecule.
For a particle of arbitrary shape with a scattering density difference of Δρ(r), the pair distance distribution function p(r) (PDDF) is given by: p(r)=r^2Δ ρ^2(r) (3) where Δ ρ^2(r) is the convolution square of Δρ(r) averaged for all directions in space. The PDDF is related to the scattered intensity l(q) by a Fourier transformation, and it enables the determination of the overall shape and size of the scattering objects.
[formula] λ is the wavelength of the incident radiation and θ is the angle between the scattered and incident beam. The function ƒ(r)=p(r)/r (6) is useful to identify flat plate-like particles, although it has no direct physical meaning. For lamellae, this function starts with a linearly increasing part and becomes almost flat when r is equal to the thickness of the lamella. For flat particles with a finite base area, the outer part decreases linearly because of boundary losses. The thickness of the lamella can then be read from the transition point.
The structural characteristics of the micelles in the two pH environments were studied by cryo-TEM and SAXS (Small Angle X-ray Scattering). Cryo-TEM was used to determine the shape of the micelles and to estimate their dimensions between 4 and 40° C. This information was further used to accurately calculate the micelles' dimensions from the SAXS data, and to study how the size and shape are affected by temperature. SAXS measurements also provided the critical micelle concentration (CMC) and the micelle aggregation numbers as a function of temperature. Experiments were performed in the concentration range of 0.1-40 mg/mL protein, at low pH (between 2.1 and 2.6) in dilute lactic acid solution (6 wt %) or HCl and in aqueous solutions at pH 6.7-7.3 in absence of salts or the presence of up to 0.1M NaCl.
SAXS measurements were used to determine the shape and dimensions of the micelles at low pH more precisely, and to evaluate the micelle molecular weight (i.e., the aggregation number). The scattering curves of 20 mg/mL β-casein in lactic acid solution (pH 2.6, IS 0.0022) at different temperatures are shown in FIG. 3a. […]

The nature of data set [3]: Dynamic light scattering (DLS) size distribution. The method, then:
DLS and Zeta potential measurements performed on a combined DLS and zeta potential analyzer (Nicomp 380 ZLS zeta potential/particle sizer, USA), at 25° C. were performed for size distribution and electrostatics characterization. For DLS measurements the scattered light intensity was detected with an Avalanche Photo Diode (APD) detector, used at a fixed angle of 90°. Laser wavelength was 658 nm, operating at 90 mW. Mono- bi- or tri-modal distributions were calculated from the scattered light intensity fluctuations, by Nicomp™ cumulants analysis of the intensity autocorrelation function. Zeta potential measurements were performed in triplicate.

Data set [4] in a line: Storage stability / appearance of suspensions and lyophilized powder. The settings on record: stored at 4 °C, neutral pH. How it is done: Bovine β-casein (>90%; Sigma-Aldrich) was dissolved in pH 7.0 hepes buffer containing 200 mM hepes (MP Biomedicals), 10 mM MgCl2 (Sigma-Aldrich), 20 mM EGTA (Sigma-Aldrich) and 10 mM NaCl (Loba Chemie), and was placed over-night at 4° C. under stirring. The protein solutions were prepared at concentrations ranging from 0.5 to 2 wt % (0.21 to 0.83 mM respectively), and were filtered through a porous membrane of 0.45 μm to avoid large protein aggregates. […] Stirring continued for 30 minutes in room temperature. […] The specimens remained stable i.e., no precipitation was observed, for at least 3 weeks at 4° C.
Protein and protein-drug solutions were lyophilized by freezing in liquid nitrogen followed by drying in a Christ Alpha 1-4 lyophilizer for 24 hours. The specimens were stored in 4° C. until re-suspension in hepes buffer, back to the original concentration (0.5 wt % or 2 wt %), or to a higher concentration of 5 wt %. Re-suspension was performed by weighing the powder, adding a measured amount of buffer and stirring for 30 minutes in room temperature.
The lifetime of the drug-loaded complexes increased to at least 3 weeks at the same temperature. Stability of the assemblies remains when they were transferred to room temperatures. […] This process provided increased stability of the loaded micelles in a dry powder form, for at least 6 months.

Setting [5] is: 1 wt % β-casein, empty or loaded 1:8 protein:celecoxib, pH ~7.
[6] abbreviates: 0.5% β-casein, empty or loaded 1:8 celecoxib, pH ~7.

B1: β-casein: bovine β-casein self-assembled into unloaded micelles in acidic or neutral buffer (protein, UniProt P02666 16-224, looked up)
Beta-casein: RELEELNVPGEIVESLSSSEESITRINKKIEKFQSEEQQQTEDELQDKIHPFAQTQSLVYPFPGPIPNSLPQNIPPLTQTPVVVPPFLQPEVMGVSKVKEAMAPKHKEMPFPKYPVEPFTESQSLTLTDVENLHLPLPLLQSWMHQPHQPLPPTVMFPPQSVLSLSQSKVLPVPQKAVPYPQRDMPIQAFLLYQEPVLGPVRGPFPIIV
modifications: self-assembled micelles
notes: bovine β-casein self-assembled into unloaded micelles in acidic or neutral buffer
As for B1, the Solution density in data set [1] (4 °C) was 1.01 g/mL; in data set [1] (16 °C) it was 1.009 g/mL; in data set [1] (25 °C), 1.007 g/mL; in data set [1] (40 °C), 1.002 g/mL. Moreover, the “Maximum micelle dimension (SAXS PDDF)” value in data set [2] (20 mg/mL, pH 2.6, all temperatures 4-40 °C) is given as 35-40 nm. The “Rg (from Guinier apr.)” value in data set [2] (setting [5]) is recorded as 7.8 nm. The “V, from a, b” value in data set [2] (setting [5]) was 2410 nm^3. Besides, the “Micelle Dimensions: diameter” value in data set [2] (pH 2.6, 4-40 °C) worked out at 25 nm in. For the same molecule, the “Micelle Shape” value was “disc” in data set [2] (pH 2.6, 4 °C); “disc” in data set [2] (pH 2.6, 16 °C); “disc” in data set [2] (pH 2.6, 25 °C); “disc” in data set [2] (pH 2.6, 40 °C). Besides, the Nagg in data set [2] (pH 2.6, 4 °C) is reported as 8; in data set [2] (pH 2.6, 4 °C, concentrations of 0.5 wt % and below) it was “approximately 2”; in data set [2] (pH 2.6, 16 °C), 10; in data set [2] (pH 2.6, 25 °C), 11; in data set [2] (pH 2.6, 40 °C) it was 9. Further, the CMC in data set [2] (pH 2.6, 25 °C, by SAXS) is 0.1-0.2 wt %. In addition, the “Micelle diameter (DLS), after lyophilization and re-suspension” value in data set [3] (setting [6]) is 21 nm. Besides, the “Micelle diameter (DLS), before drying” value in data set [3] (setting [6]) stood at 19 nm. In data set [3] (2 wt % β-casein, empty or loaded 1:1 budesonide, hepes buffer pH 7.0), the “Micelle diameter (DLS)” value was determined as 19.6±3.4 nm. The “Lifetime of empty micelles on storage” value in data set [4] was “degraded within a few days”.

For the origin of these results see patent US8871276B2, “Beta-casein assemblies for mucosal delivery of therapeutic bioactive agents” (Technion Research and Development Foundation Ltd., priority 2008, dated 2014).
